Source: patent US7998923B2, “Bioactivation of particles” (The Regents of the University of California, priority 2002, dated 2011)
Square brackets hold non-standard residues; d marks the D form. Cha = N[C@@H](CC1CCCCC1)C(=O)O

Assay: solubilization assay of CdSe/ZnS quantum dots with bioactivation peptides
Format: physicochemical
Conditions: peptide coated CdSe/ZnS quantum dots, diluted from DMSO
Experimental: A non-limiting example of the MRP is Cha-C-C-Cha-C-C-Cha-C-C-Cha (SEQ. ID. NO. 1) with Cha standing for Cyclohexyl alanine and C for cysteine. […] All synthesis used N-Boc or F-moc protecting groups and sequences may be N-acetylated and/or C-carboxylated. The bioactivation peptides are added directly onto the particles and allowed to form a good dispersion of the quantum dots in DMSO and subsequently yielded stable and highly monodisperse dilutions of the nanocrystals in water and buffer. Stability in water and buffers is enhanced by the addition of a hydrophilic sequence at the N-terminus of the Cha-C-C-Cha . . . sequence. The following sequence was used: G-S-E-S-G-G-S-E-S-G-Cha-C-C-Cha-C-C-Cha-C-C-Cha (SEQ. ID. NO. 2).
This substitution led to aggregations of particles during the reaction and thus lack of migration on electrophoresis gels. Similarly replacing the cysteines in the binding clusters with alanine gave unstable particles that flocculate rapidly after solubilization in aqueous solvents. […]

For “NH2-G-S-E-S-G-G-S-E-S-G-Cha-C-C-Cha-C-C-Cha-C-C-Cha-Carboxamide (H-GSESGGSESG[Cha]CC[Cha]CC[Cha]CC[Cha]-NH2; cysteine pairing not given here) [ChaCha E swimmer]”, the “stability in water and buffers” value was “enhanced”.
